The results in this text go back to patent US9012166B2, “Method for assaying histone methylation enzyme activity” (Kyushu Institute of Technology, priority 2010, dated 2015).

*: point of attachment. AMC = Cc1cc(=O)oc2cc(N*)ccc12

In the first assay the target is T1, G9a (GST-mG9a) (Mus musculus, UniProt Q9Z148).
T1 sequence (Q9Z148 1-1263): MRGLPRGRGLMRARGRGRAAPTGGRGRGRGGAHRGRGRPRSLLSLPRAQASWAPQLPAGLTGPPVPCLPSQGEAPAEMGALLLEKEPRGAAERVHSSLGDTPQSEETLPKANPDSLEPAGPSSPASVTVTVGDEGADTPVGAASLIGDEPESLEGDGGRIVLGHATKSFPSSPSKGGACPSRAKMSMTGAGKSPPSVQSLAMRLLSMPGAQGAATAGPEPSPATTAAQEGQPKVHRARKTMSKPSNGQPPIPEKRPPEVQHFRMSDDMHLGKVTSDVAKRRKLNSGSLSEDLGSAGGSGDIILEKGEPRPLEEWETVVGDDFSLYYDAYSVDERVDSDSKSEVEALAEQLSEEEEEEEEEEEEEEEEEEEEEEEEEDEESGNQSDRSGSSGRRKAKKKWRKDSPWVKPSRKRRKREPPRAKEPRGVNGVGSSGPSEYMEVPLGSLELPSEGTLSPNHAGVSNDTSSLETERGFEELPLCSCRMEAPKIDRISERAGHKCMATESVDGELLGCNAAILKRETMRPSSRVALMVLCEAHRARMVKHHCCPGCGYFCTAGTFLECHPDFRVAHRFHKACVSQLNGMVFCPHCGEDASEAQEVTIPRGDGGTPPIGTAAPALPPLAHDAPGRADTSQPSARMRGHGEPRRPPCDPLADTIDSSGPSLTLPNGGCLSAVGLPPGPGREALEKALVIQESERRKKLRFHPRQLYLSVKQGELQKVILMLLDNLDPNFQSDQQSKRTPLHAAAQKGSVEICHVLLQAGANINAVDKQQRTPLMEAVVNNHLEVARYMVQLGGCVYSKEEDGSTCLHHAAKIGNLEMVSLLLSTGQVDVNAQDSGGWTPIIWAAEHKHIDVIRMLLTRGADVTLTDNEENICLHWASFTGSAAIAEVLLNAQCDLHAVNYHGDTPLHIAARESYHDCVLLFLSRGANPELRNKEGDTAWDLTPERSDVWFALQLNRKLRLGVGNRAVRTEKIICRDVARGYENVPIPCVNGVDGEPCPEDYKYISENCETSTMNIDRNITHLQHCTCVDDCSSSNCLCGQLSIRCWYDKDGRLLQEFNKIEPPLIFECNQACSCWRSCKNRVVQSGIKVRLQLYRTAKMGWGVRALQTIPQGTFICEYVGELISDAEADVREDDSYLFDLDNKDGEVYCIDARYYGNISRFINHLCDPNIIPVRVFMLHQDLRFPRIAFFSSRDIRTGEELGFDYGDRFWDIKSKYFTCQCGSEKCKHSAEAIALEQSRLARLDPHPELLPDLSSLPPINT
Nature of the assay: Substrate specificity / methylation of substrate compounds by G9a. Format: biochemical. To be noted: Example 4; BocLysMCA 0.009 mM to 0.09 mM; G9a 0-0.15 μg/μL; FIG. 9. Here is the method: Distilled water was added to 10 μL of 2×HMT buffer (100 mM Tris-HCl (pH 8.5), 20 mM MgCl2, 40 mM KCl, 20 mM 2-mercaptoethanol, 500 mM sucrose), 2 μL of a BSA solution (30 μg/mL), and a predetermined concentration (final concentration: 0, 0.015, 0.05, or 0.15 μg/μL) of a histone methyltransferase (G9a) solution to adjust the total volume to 16 μL. Thereafter, the resultant solution was incubated at room temperature for 1 hour. Then, 2 μL of S-adenosylmethionine (SAM) (10 mM) and 2 μL of BocLysMCA (final concentration: 0.009 mM, 0.03 mM, or 0.09 mM) were added thereto, which was mixed and then incubated at 37° C. for 1 hour. Subsequently, 30 μL of a trypsin solution (20 mg/mL) was added thereto, followed by incubation at 37° C. for 15 minutes. The fluorescence intensity of the solution was measured at an excitation wavelength (λex) of 390 nm and a fluorescence wavelength (λem) of 460 nm.
When G9a was adopted as a histone methyltransferase, the following method was used. 10 μL of 2×HMT buffer (100 mM Tris-HCl (pH 8.5), 20 mM MgCl2, 40 mM KCl, 20 mM 2-mercaptoethanol, 500 mM sucrose), 0.4 μL of a BSA solution (150 μg/mL), 4.5 μL of GST-mG9a (0, 0.022 to 0.66 μg/μL), and 1.1 μL of distilled water were mixed and then incubated at room temperature for 1 hour. Then, 2 μL of SAM (10 mM) and 2 μL of a peptidyl MCA solution (0.6 mM) were added thereto, which was then incubated at 37° C. for 1 hour. Thereafter, 30 μL of a trypsin solution (20 mg/mL) was added thereto, followed by incubation at 37° C. for 15 minutes. Then, the fluorescence intensity of the solution was measured at an excitation wavelength (λex) of 390 nm and a fluorescence wavelength (λem) of 460 nm. The final concentration of GST-mG9a during the measurement of fluorescence intensity was 0, 0.005, 0.015, 0.05, or 0.15 μg/μL. The results of the assay for measuring histone methyltransferase activity are shown in the left panel of FIG. 14.
When G9a was adopted as a histone methyltransferase, the following method was used. 10 μL of 2×HMT buffer (100 mM Tris-HCl (pH 8.5), 20 mM MgCl2, 40 mM KCl, 20 mM 2-mercaptoethanol, 500 mM sucrose), 0.4 μL of a BSA solution (150 μg/mL), 3.6 μL of GST-mG9a (0, 0.028, 0.083, 0.28, 0.83 μg/μL), and 4 μL of distilled water were mixed and then incubated at room temperature for 1 hour. Then, 1 μL of SAM (20 mM) and 1 μL of a peptidyl MCA solution (1.2 mM) were added thereto, which was then incubated at 37° C. for 1 hour. Thereafter, 30 μL of a trypsin solution (20 mg/mL) was added thereto, followed by incubation at 37° C. for 15 minutes. Then, the fluorescence intensity of the solution was measured at an excitation wavelength (λex) of 390 nm and a fluorescence wavelength (λem) of 460 nm. The final concentration of GST-mG9a during the measurement of fluorescence intensity was 0, 0.005, 0.015, 0.05, or 0.15 μg/μL. The results of the assay for measuring histone methyltransferase activity are shown in the left panel of FIG. 16.
When G9a was adopted as a histone methyltransferase, the following method was used. 10 μL of 2×HMT buffer (100 mM Tris-HCl (pH 8.5), 20 mM MgCl2, 40 mM KCl, 20 mM 2-mercaptoethanol, 500 mM sucrose), 0.4 μL of a BSA solution (150 μg/mL), 4 μL of GST-mG9a (0, 0.025 to 0.75 μg/μL), and 3.6 μL of distilled water were mixed and then incubated at room temperature for 1 hour. Then, 1 μL of SAM (final concentration: 1 mM) and 1 μL, of a peptidyl MCA solution (1.2 mM) were added thereto, which was then incubated at 37° C. for 1 hour. Thereafter, 30 μL of a trypsin solution (20 mg/mL) was added thereto, followed by incubation at 37° C. for 15 minutes. Then, the fluorescence intensity of the solution was measured at an excitation wavelength (λex) of 330 nm and a fluorescence wavelength (λem) of 380 nm or at an excitation wavelength (λex) of 390 nm and a fluorescence wavelength (λem) of 460 nm. The final concentration of GST-mG9a during the measurement of fluorescence intensity was 0, 0.005, 0.015, 0.05, or 0.15 μg/μL.
As for `Cc1cc(=O)oc2cc(NC(=O)C(CCCCN)NC(=O)OC(C)(C)C)ccc12` (stereo not shown) [BocLysMCA, Boc-K-MCA], the “fluorescence intensity of AMC after G9a reaction and trypsin” value is given as “decreased in a manner dependent on the concentration of the histone methyltransferase G9a”.

Still in this assay, the particulars now being: Example 6; GST-mG9a 0-0.15 μg/μL; left panel of FIG. 14.
For the compound “Ac-ARK-MCA (Ac-Ala-Arg-Lys-{AMC}; SMILES CC(=O)N[C@@H](C)C(=O)N[C@@H](CCCNC(=N)N)C(=O)N[C@@H](CCCCN)C(=O)Nc1ccc2c(C)cc(=O)oc2c1; listed as Homo sapiens) [Ac-histone H3 (7-9/25-27)-MCA, acetyl-ARK (human histone H3 7-9 or 25-27)-MCA substrate]”, the “methylation of peptidyl MCA by G9a” value is on record as “methylation often occurred”.

Take “Ac-ARTK-MCA (Ac-ARTK-{AMC}; SMILES CC(=O)N[C@@H](C)C(=O)N[C@@H](CCCNC(=N)N)C(=O)N[C@H](C(=O)N[C@@H](CCCCN)C(=O)Nc1ccc2c(C)cc(=O)oc2c1)[C@@H](C)O; listed as Homo sapiens) [Ac-histone H3 (1-4)-MCA]”: the “methylation of peptidyl MCA by G9a” value is “little methylation occurred”.

As to “Ac-ARTKQTARK-MCA [Ac-histone H3 (1-9)-MCA]”, the “methylation of peptidyl MCA by G9a” value was “methylation often occurred”.

As for “Ac-KAARK-MCA (Ac-KAARK-{AMC}; SMILES CC(=O)N[C@@H](CCCCN)C(=O)N[C@@H](C)C(=O)N[C@@H](C)C(=O)N[C@@H](CCCNC(=N)N)C(=O)N[C@@H](CCCCN)C(=O)Nc1ccc2c(C)cc(=O)oc2c1; listed as Homo sapiens) [Ac-histone H3 (23-27)-MCA]”, the “methylation of peptidyl MCA by G9a” value is “methylation often occurred”.

Turning to “Ac-LKSK-MCA (Ac-LKSK-{AMC}; SMILES CC(=O)N[C@@H](CC(C)C)C(=O)N[C@@H](CCCCN)C(=O)N[C@@H](CO)C(=O)N[C@@H](CCCCN)C(=O)Nc1ccc2c(C)cc(=O)oc2c1; listed as Homo sapiens) [Ac-p53 (369-372)-MCA]”, the “methylation of peptidyl MCA by G9a” value is on record as “little methylation occurred”.

In the case of “Ac-QLATKAARK-MCA (Ac-QLATKAARK-{AMC}; SMILES CC(=O)N[C@@H](CCC(N)=O)C(=O)N[C@@H](CC(C)C)C(=O)N[C@@H](C)C(=O)N[C@H](C(=O)N[C@@H](CCCCN)C(=O)N[C@@H](C)C(=O)N[C@@H](C)C(=O)N[C@@H](CCCNC(=N)N)C(=O)N[C@@H](CCCCN)C(=O)Nc1ccc2c(C)cc(=O)oc2c1)[C@@H](C)O; listed as Homo sapiens) [Ac-histone H3 (19-27)-MCA]”, the “methylation of peptidyl MCA by G9a” value is recorded as “methylation often occurred”.

As to Ac-QTARK-MCA [Ac-histone H3 (5-9)-MCA], the “methylation of peptidyl MCA by G9a” value was “methylation often occurred”.

Still in this assay, the particulars now being: Example 13; AMC and peptidyl MCA fluorescence; FIGS. 25 and 26.
Regarding “Ac-ARTKQTARK-MCA [Ac-histone H3 (1-9)-MCA]”, the “methylation of peptidyl MCA by GST-mG9a” value is “methylates”.

For “Ac-KRSK-MCA (Ac-KRSK-{AMC}; SMILES CC(=O)N[C@@H](CCCCN)C(=O)N[C@@H](CCCNC(=N)N)C(=O)N[C@@H](CO)C(=O)N[C@@H](CCCCN)C(=O)Nc1ccc2c(C)cc(=O)oc2c1; listed as Homo sapiens) [Ac-ERα (299-302)-MCA]”, the “methylation of peptidyl MCA by GST-mG9a” value is “does not methylate”.
